Measurements as given in US20230321209A1.

Target: human Adenovirus capsid
Experiment: SPR, peptide on adenovirus capsid (FIGS. 13A-13B)

B1: R1A_KRAKV SARS-CoV2 peptide with 6K poly-lysine tail (peptide)
peptide: KKKKKKKRAKVTSAMQTMLFTMLRKL
For B1, the list of priority (rank by SPR binding, high binders listed first) was 5 rank.
